Data as given in patent US20240270846A1 (published 2024).
Changes are numbered by the printed parent chain. Numbers in names are those of the source.

B1: CE115HA000 H chain altered form H35A (antibody, human IgG1, kappa, L234A L235A, N297A, name in Kabat numbering)
heavy: QVQLVESGGGVVQPGRSLRLSCAASGFTFSNAWMAWVRQAPGKGLEWVAQIKAKSNNYATYYAESVKGRFTISRDDSKNSLYLQMNSLKTEDTAVYYCRYVHYGAYYGVDAWGQGTTVTVSSASTKGPSVFPLAPSSKSTSGGTAALGCLVKDYFPEPVTVSWNSGALTSGVHTFPAVLQSSGLYSLSSVVTVPSSSLGTQTYICNVNHKPSNTKVDKKVEPKSCDKTHTCPPCPAPEAAGGPSVFLFPPKPKDTLMISRTPEVTCVVVDVSHEDPEVKFNWYVDGVEVHNAKTKPREEQYASTYRVVSVLTVLHQDWLNGKEYKCKVSNKALPAPIEKTISKAKGQPREPQVYTLPPSRCELTKNQVSLSCAVKGFYPSDIAVEWESNGQPENNYKTTPPVLDSDGSFFLVSKLTVDKSRWQQGNVFSCSVMHEALHNHYTQKSLSLSPDYKDDDDK
chain: EPKSSDKTHTCPPCPAPELLGGPSVFLFPPKPKDTLMISRTPEVTCVVVDVSHEDPEVKFNWYVDGVEVHNAKTKPREEQYNSTYRVVSVLTVLHQDWLNGKEYKCKVSNKALPAPIEKTISKAKGQPREPQVCTLPPSRDELTKNQVSLWCLVKGFYPSDIAVEWESNGQPENNYKTTPPVLDSDGSFFLYSKLTVDKSRWQQGNVFSCSVMHEALHNRYTQKSLSLSP
light: DIVMTQSPLSLPVTPGEPASISCRSSQSLVHSNRNTYLHWYQQKPGQAPRLLIYKVSNRFSGVPDRFSGSGSGTDFTLKISRVEAEDVGVYYCGQGTQVPYTFGQGTKLEIKRTVAAPSVFIFPPSDEQLKSGTASVVCLLNNFYPREAKVQWKVDNALQSGNSQESVTEQDSKDSTYSLSSTLTLSKADYEKHKVYACEVTHQGLSSPVTKSFNRGEC
notes: one-arm antibody
B2: CE115HA000 H chain altered form A32Y (antibody, human IgG1, kappa, L234A L235A, N297A, name in Kabat numbering)
heavy: B1 heavy with A32Y, A35H
chain: B1 chain
light: B1 light
notes: one-arm antibody
B3: CE115HA000 H chain altered form A52aD (antibody, human IgG1, kappa, L234A L235A, N297A, name in Kabat numbering)
heavy: B1 heavy with A35H, A53D
chain: B1 chain
light: B1 light
notes: one-arm antibody
B4: CE115HA000 H chain altered form A52aE (antibody, human IgG1, kappa, L234A L235A, N297A, name in Kabat numbering)
heavy: B1 heavy with A35H, A53E
chain: B1 chain
light: B1 light
notes: one-arm antibody
B5: CE115HA000 H chain altered form A52aG (antibody, human IgG1, kappa, L234A L235A, N297A, name in Kabat numbering)
heavy: B1 heavy with A35H, A53G
chain: B1 chain
light: B1 light
notes: one-arm antibody
B6: CE115HA000 H chain altered form A52aP (antibody, human IgG1, kappa, L234A L235A, N297A, name in Kabat numbering)
heavy: B1 heavy with A35H, A53P
chain: B1 chain
light: B1 light
notes: one-arm antibody
B7: GLS3000 S27eY one-arm antibody (H chain CE115HA000) (antibody, human IgG1, kappa, L234A L235A, N297A, name in Kabat numbering)
heavy: B1 heavy with A35H
chain: B1 chain
light: B1 light with S32Y
notes: one-arm antibody
B8: GLS3000 S52A one-arm antibody (H chain CE115HA000) (antibody, human IgG1, kappa, L234A L235A, N297A, name in Kabat numbering)
heavy: B1 heavy with A35H
chain: B1 chain
light: B1 light with S57A
notes: one-arm antibody
B9: GLS3000 S52D one-arm antibody (H chain CE115HA000) (antibody, human IgG1, kappa, L234A L235A, N297A, name in Kabat numbering)
heavy: B1 heavy with A35H
chain: B1 chain
light: B1 light with S57D
notes: one-arm antibody
B10: GLS3000 S56A one-arm antibody (H chain CE115HA000) (antibody, human IgG1, kappa, L234A L235A, N297A, name in Kabat numbering)
heavy: B1 heavy with A35H
chain: B1 chain
light: B1 light with S61A
notes: one-arm antibody
B11: GLS3000 S56D one-arm antibody (H chain CE115HA000) (antibody, human IgG1, kappa, L234A L235A, N297A, name in Kabat numbering)
heavy: B1 heavy with A35H
chain: B1 chain
light: B1 light with S61D
notes: one-arm antibody
B12: GLS3000 T31D one-arm antibody (H chain CE115HA000) (antibody, human IgG1, kappa, L234A L235A, N297A, name in Kabat numbering)
heavy: B1 heavy with A35H
chain: B1 chain
light: B1 light with T36D
notes: one-arm antibody
B13: GLS3000 V27cD one-arm antibody (H chain CE115HA000) (antibody, human IgG1, kappa, L234A L235A, N297A, name in Kabat numbering)
heavy: B1 heavy with A35H
chain: B1 chain
light: B1 light with V30D
notes: one-arm antibody
B14: GLS3000 V27cE one-arm antibody (H chain CE115HA000) (antibody, human IgG1, kappa, L234A L235A, N297A, name in Kabat numbering)
heavy: B1 heavy with A35H
chain: B1 chain
light: B1 light with V30E
notes: one-arm antibody
B15: GLS3000 V27cI one-arm antibody (H chain CE115HA000) (antibody, human IgG1, kappa, L234A L235A, N297A, name in Kabat numbering)
heavy: B1 heavy with A35H
chain: B1 chain
light: B1 light with V30I
notes: one-arm antibody
B16: GLS3000 V27cL one-arm antibody (H chain CE115HA000) (antibody, human IgG1, kappa, L234A L235A, N297A, name in Kabat numbering)
heavy: B1 heavy with A35H
chain: B1 chain
light: B1 light with V30L
notes: one-arm antibody
B17: GLS3000 V27cP one-arm antibody (H chain CE115HA000) (antibody, human IgG1, kappa, L234A L235A, N297A, name in Kabat numbering)
heavy: B1 heavy with A35H
chain: B1 chain
light: B1 light with V30P
notes: one-arm antibody
B18: GLS3000 V27cS one-arm antibody (H chain CE115HA000) (antibody, human IgG1, kappa, L234A L235A, N297A, name in Kabat numbering)
heavy: B1 heavy with A35H
chain: B1 chain
light: B1 light with V30S
notes: one-arm antibody
B19: GLS3000 V27cY one-arm antibody (H chain CE115HA000) (antibody, human IgG1, kappa, L234A L235A, N297A, name in Kabat numbering)
heavy: B1 heavy with A35H
chain: B1 chain
light: B1 light with V30Y
notes: one-arm antibody
B20: GLS3000 V51D one-arm antibody (H chain CE115HA000) (antibody, human IgG1, kappa, L234A L235A, N297A, name in Kabat numbering)
heavy: B1 heavy with A35H
chain: B1 chain
light: B1 light with V56D
notes: one-arm antibody
B21: GLS3000 Y32A one-arm antibody (H chain CE115HA000) (antibody, human IgG1, kappa, L234A L235A, N297A, name in Kabat numbering)
heavy: B1 heavy with A35H
chain: B1 chain
light: B1 light with Y37A
notes: one-arm antibody
B22: GLS3000 Y32D one-arm antibody (H chain CE115HA000) (antibody, human IgG1, kappa, L234A L235A, N297A, name in Kabat numbering)
heavy: B1 heavy with A35H
chain: B1 chain
light: B1 light with Y37D
notes: one-arm antibody

Each binder was assayed against T1, CD3 epsilon homodimer protein (UniProt P07766 23-126) (assay: SPR Biacore T200, CD3 epsilon homodimer on chip, antibody as analyte;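 note: homodimer amine-coupled to a CM4 sensor chip, run at 25 °C in HBS-EP+ buffer, with kinetic parameters derived in Biacore T200 Evaluation Software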).
T1 construct: also called CD3 (CD3 epsilon)
T1 sequence (P07766 23-126): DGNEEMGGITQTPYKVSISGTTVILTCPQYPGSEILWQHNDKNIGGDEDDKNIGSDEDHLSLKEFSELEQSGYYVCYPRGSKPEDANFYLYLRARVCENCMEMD
In the case of B1, the “KD ratio (KD of CE115HA000 / KD of altered form)” value is reported as 25.
For B2, the “KD ratio (KD of CE115HA000 / KD of altered form)” value was 2.11.
In the case of B3, the “KD ratio (KD of CE115HA000 / KD of altered form)” value is reported as 1.35.
In the case of B4, the “KD ratio (KD of CE115HA000 / KD of altered form)” value is reported as 0.89.
In the case of B5, the “KD ratio (KD of CE115HA000 / KD of altered form)” value is reported as 0.61.
For B6, the “KD ratio (KD of CE115HA000 / KD of altered form)” value was 5.

Each binder was assayed against T2, CD3 epsilon homodimer protein (UniProt P07766 23-126) (assay: SPR, CD3e homodimer on chip;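 note: surface plasmon resonance at 25 degrees C, antibodies flowed as analyte over CD3 epsilon homodimer amine-coupled to a CM4 chip, running buffer HBS-EP+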).
T2 construct: also called CD3 (CD3 epsilon)
T2 sequence (P07766 23-126): as above
Description: An appropriate amount of CD3 epsilon homodimer protein was immobilized onto Sensor chip CM4 (GE Healthcare Japan Corp.) by the amine coupling method. Then, the antibody having an appropriate concentration was injected thereto as an analyte and allowed to interact with the CD3 epsilon homodimer protein on the sensor chip. Then, the sensor chip was regenerated by the injection of 10 mmol/L glycine-HCl (pH 1.5). The assay was conducted at 25 degrees C., and HBS-EP+(GE Healthcare Japan Corp.) was used as a running buffer. […] Each parameter was calculated using Biacore T200 Evaluation Software (GE Healthcare Japan Corp.).
Specifically, when the amount of the GLS3000-containing antibody bound was defined as X and the amount of the L chain one-amino acid altered form bound was defined as Y, a value of Z (ratio of amounts bound)=Y/X was used.
In the case of B7, the “ratio of amounts bound (altered form / unaltered GLS3000 antibody)” value is reported as 1.2.
With B8 the “ratio of amounts bound (altered form / unaltered GLS3000 antibody)” value was 0.93.
In the case of B9, the “ratio of amounts bound (altered form / unaltered GLS3000 antibody)” value is reported as 0.63.
B10 was tested, and the “ratio of amounts bound (altered form / unaltered GLS3000 antibody)” value was 1.16.
With B11 the “ratio of amounts bound (altered form / unaltered GLS3000 antibody)” value was 0.77.
B12 was tested, and the “ratio of amounts bound (altered form / unaltered GLS3000 antibody)” value was 0.23.
For B13, the “ratio of amounts bound (altered form / unaltered GLS3000 antibody)” value was 0.32.
With B14 the “ratio of amounts bound (altered form / unaltered GLS3000 antibody)” value was 0.61.
In the case of B15, the “ratio of amounts bound (altered form / unaltered GLS3000 antibody)” value is reported as 0.96.
For B16, the “ratio of amounts bound (altered form / unaltered GLS3000 antibody)” value was 0.84.
With B17 the “ratio of amounts bound (altered form / unaltered GLS3000 antibody)” value was 0.3.
In the case of B18, the “ratio of amounts bound (altered form / unaltered GLS3000 antibody)” value is reported as 0.51.
With B19 the “ratio of amounts bound (altered form / unaltered GLS3000 antibody)” value was 0.77.
B20 was tested, and the “ratio of amounts bound (altered form / unaltered GLS3000 antibody)” value was 0.33.
With B21 the “ratio of amounts bound (altered form / unaltered GLS3000 antibody)” value was 0.24.
In the case of B22, the “ratio of amounts bound (altered form / unaltered GLS3000 antibody)” value is reported as 0.23.
